Assay results taken from patent publication US20230212587A1, “Mutant Hydroxyphenylpyruvate Dioxygenase Polypeptide, Encoding Gene Thereof and Use Therefor” (Beijing Dabeinong Biotechnology Co., Ltd., priority 2019, published 2023).

B1: StHPPDm-F372V: Solanum tuberosum HPPD mutant F372V, SEQ ID NO: 381 (protein)
chain: MGKQAATATATATATADDQQLPADIEDKYKLVGFNNFVRTNPRSDLFNVKRFHHIEFWCGDATNTARRFSWGLGLPIAAKSDLSTGNSVHASYLLRSSSSQLQFLFTAPYSPAISTPSSSSIPTFSVSSHRSFTETHGLGVRAIALEVENSRLAFSTCVSHGAKPVSEPVILNDEVVISEVHLYGDVVLRFVSFLKDSNRFVFLPGFELVEGAQLDYGIRRLDHAVGNVPQLGPVVEYIKSFTGFHEFAEFTAEDVGTAESGLNSVVLANNDETVLFPLNEPVYGTKRKSQIQTYLEHNEGAGVQHLALVTEDIFRTLREMRKRSGIGGFEFMPSPPPTYYKNLKSRAGDILSDEQIKECEELGILVDRDDQGTLLQIVTKPVGDRPTIFLEIIQRIGCMLQNAEGELYQKGGCGGFGKGNFSELFKSIEEYEKTLEAKQNTQVAIA
modifications: StHPPDm-F372V Amino Acid Sequence
B2: N2HPPDm-F372V: Sphingobium sp. N2 HPPD mutant F372V, SEQ ID NO: 391 (protein)
chain: MTLFDNPLGLDGFEFVEFSAPAKGMLEPVFAAMGFVMIARHRSKDVQLWRQGGINLIANYEPRSPAAYFAAEHGPSACGMGWRVRNAAKAYELAVERGAEPVDVKTGPMELRLPAIRGIGGSIIYLIDRYEDEDGGLSIYDIDFVYEPGVDRHPEGAGFKIIDHLTHNVYGGRMAHWASFYERVFGFREIRYFDIKGEYTGLTSKAMTAPDGKIRIPLNEEGKAGGGQIEEFLRAYNGEGIQHIAFLCDDLIAAWDKLKALGTPLMTAPPATYYEMLDERLPGHGEPVAELQKRGILLDGSTQQGDPRLLLQIVGQATIGPVFFEFIQRKKDEGFGEGNFTALFESMERDQLRRGTLNAGESA
modifications: N2HPPDm-F372V Amino Acid Sequence
B3: CsHPPDm-F372V: Cucumis sativus HPPD mutant F372V, SEQ ID NO: 379 (protein)
chain: MGKEADFPRAPSEATDGGATASQSEFELQGFDNFIRTNPKSDRFKVKRFHHIEFWCTDATNVARRFSWGLGMQIVAKSDLSTGNMTHASYLLRSGHLCFLFTAPYSPSIAAAQNLTPASTASIPSFDHSVCRSFSGTHGFGARAIALEVEDAEIAFRTSVAHGAKPSCPPIVLENRAVLSEVHLYGDVVLRYISYKNPVSGDNGENKPDEWFLPKFEAMEETASFPLDFGIRRLDHAVGNVPELGPAVSYLKGFTGFHEFAEFTAEDVGTSESGLNSMVLANNEEMVLLPINEPVFGTKRKSQIQTYLEHNEGAGVQHLALMSEDIFRTLREMRKRSSVGGFEFMPSPPPTYYKNLKSRAGDVLTDEQIKECEELGILVDKDDQGTLLQIVTKPVGDRPTIFIEIIQRLGCMMKDEEGKAFQKGGCGGFGKGNFSELFKSIEEYEKTLEAKRVSE
modifications: CsHPPDm-F372V Amino Acid Sequence
B4: CyHPPDm-F372V: Cyanobacteria HPPD mutant F372V, SEQ ID NO: 387 (protein)
chain: MEFDYLHLYVDDYQSAHRCYQRQWGFTCVNKIITDQGITGIYQQGQILLLISASESSLSRYADYLQKHPPGVGEVAWQVANWQKIQHQLSELQIETTPVIHPLTKAEGLTFLLWGDVHHSIYPVRSELNQNKTLHGVGLTTIDHVVLNIAADQFTQASQWYQQVFGWSVQQSFTVNTPHSGLYSEALASANGKVQFNLNCPTNNSSQIQTFLANNHGAGIQHVAFSTTSITRTVAHLRERGVNFLKIPTGYYQQQRNSSYFNYASLDWDTLQCLEILLDDQDNTGERLLLQIVSQPCYGVGTLFWEIIERRHRAKGFGQGNFQALYEAVETLEKQLEVP
modifications: CyHPPDm-F372V Amino Acid Sequence
B5: BvHPPDm-F372V: Beta vulgaris HPPD mutant F372V, SEQ ID NO: 375 (protein)
chain: MGTLSPQPQTSPSQFKLVGYSNFIRVNPLSDLFPVKRFHHVEFWCGDATNVSRRFSWGLGMPIVAKSDLSTGNSVHASYLLRSGELHFLFTSPYSPSLSSPSSATIPTFSFSLFTSFLTSHGLAVRAVAVEVQDAEAAFHISVSNGASPVSPPIRLHDGVVLSEVHLYGDVVLRYVSTSSVVDGIFLPGFEEMLGESSFQELDFGLRRLDHAVGNVPELAPAIEYVKKFTGFHEFAEFTTEDVGTSESGLNSAVVANNDETVLFPMNEPVYGTKRKSQIQTYLEHNEGAGVQHLALMSEDIFWTLREMRKRSGLGGFEFMPSPPPTYYRNLRNRAADVLSEEQMKECEELGILVDKDDQGTLLQIVTKPIGDRPTMFIEIIQRIGCMMKDEEGKVYQKGGCGGFGKGNFSELFKSIEEYEKTLERKPIADTNAT
modifications: BvHPPDm-F372V Amino Acid Sequence
B6: SlHPPDm-F372V (protein)
chain: MGKQAAAAADDQQLPGDIEDKFKLVGFNHFVRTNPRSDFFTVKRFHHIEFWCGDATNTARRFSWGLGLPIAAISDLSTGNSVHASYLLRSSSSSQLQFLFTAPYSSAISTSSSASIPTFSVSSHRSFTATHGLGVRAIALEVENSRLAFSTCVAHGAKPVSEPVILNDEVVIAEVHLYGDVVLRFVSFLKDSNCFVFLPGFESVEGAQLDYGIRRLDHAVGNVPELGPVVEYIKSFTGFHEFAEFTAEDVGTAESGLNSVVLANNDETVLFPLNEPVYGTKRKSQIQTYLEHNEGAGVQHLALVTEDIFRTLREMRKRSGIGGFEFMPSPPPTYYKNLKTRAGDILSDEQIQECEELGILVDRDDQGTLLQIVTKPVGDRPTIFLEIIQRIGCMLKNEEGELYQKGGCGGFGKGNFSELFKSIEEYEKTLEAKQNTQVAIA
modifications: SlHPPDm-F372V Amino Acid Sequence
B7: ZmHPPDm-F372V: Zea mays HPPD mutant F372V, SEQ ID NO: 347 (protein)
chain: MPPTPTAAAAGAAVAAASAAEQAAFRLVGHRNFVRFNPRSDRFHTLAFHHVELWCADAASAAGRFSFGLGAPLAARSDLSTGNSAHASLLLRSGSLSFLFTAPYAHGADAATAALPSFSAAAARRFAADHGLAVRAVALRVADAEEAFRTSVAAGARPAFGPVDLGRGFRLAEVELYGDVVLRYVSYPDGAAGEPFLPGFEGVASPGAADYGLSRFDHIVGNVPELAPAAAYFAGFTGFHEFAEFTTEDVGTAESGLNSMVLANNSENVLLPLNEPVHGTKRRSQIQTFLDHHGGPGVQHMALASDDVLRTLREMQARSAMGGFEFMAPPTSDYYDGVRRRAGDVLTEAQIKECQELGVLVDRDDQGVLLQIVPKPVGDRPTLFLEIIQRIGCMERDEKGQEYQKGGCGGFGKGNFSQLFKSIEDYEKSLEAMQAAAAATAQGS
modifications: ZmHPPDm-F372V Amino Acid Sequence
B8: NtHPPDm-F372V: Nicotiana tabacum HPPD mutant F372V, SEQ ID NO: 377 (protein)
chain: MGKLETVTTTSAAAADDSSELTTNFKLVGFKNFIRTNPRSDFFSVKSFHHIEFWCGDATNTARRFSWSLGMPIAAKSDLSTGNSVHASYLLRPVSGSLQFLFTAPYSPSISTPSSAAIPSFSTSTHRSFTTTHGLGVRAVALEVENAYTAFSASVSRGAKPMFEPVTIDEQVAMAEVHLYGDVVLRFVSYLKDADNLVFLPGFEAMDETASYKELDYGIRRLDHAVGNVPELGPVVDYIKRFTGFHEFAEFTAEDVGTAESGLNSMVLANNDETVLLPLNEPVYGTKRKSQIQTYLEHNEGAGVQHLALVTEDIFKTLTEMRKRSGVGGFEFMPSPPPTYYKNLKNRAGDVLSDEQILACEELGILVDRDDQGTLLQIVTKPVGDRPTIFIEIIQRIGCMLKDGKGQVYQKGGCGGFGKGNFSELFRSIEEYEKTLEAKQANQVAAA
modifications: NtHPPDm-F372V Amino Acid Sequence
B9: AhHPPDm-F372V: Arachis hypogaea HPPD mutant F372V, SEQ ID NO: 385 (protein)
chain: MATAYTYAHAVTYCNSQHNPPIIPILSTNQHPPRVTLPSSIPHFISTITTFNLKHFPSHSLHTVMVTQTQQNAPSSSPELGFKLVGFKNFVRTNPKSDRFKVIRFHHVEFWCTDATNTASRFSWGLGMPIVAKSDLSTGNAVHASYLLRSGDLNFLFSAPYSASIAGDGASASFPSFSASDCHSFAAKHGLAVRAVAIEVEDASAAFSASVANGAKPVSPAVLLDNSVGFAEVHLYGDVVLRYISYSAPTRESNLNPTLRFLPGFEAVEADSSFPELDYGIRRLDHAVGNVPELAPAVNYLKKFTGFHEFAEFTAEDVGTSESGLNSVVLASNDEMVLLPLNEPVYGTKRKSQIETYLEHNEGAGLQHLALVSEDIFRTLREMRKRSTIGGFQFMPSPPPTYYRNLKKRAGDVLSDEQIKECEELGILVDRDDQGTLLQIVTKPVGDRPTIFIEIIQRIGCMLKDEEGKVYQKGGCGGFGKGNFSELFKSIEEYEKTLESRRTA
modifications: AhHPPDm-F372V Amino Acid Sequence
B10: N1HPPDm-F372V: Sphingobium sp. N1 HPPD mutant F372V, SEQ ID NO: 389 (protein)
chain: MAADSENPLGLHGFAFAEFTSPDPAAMARQFEQLGFVPAARRKDRGLTLYRQGRIAFILNAGEGEQASAFRAAHGPSANGMAFNVADAKAAHRHAIQSGATDADTAQSALPGTYAIEGIGDSLLYLVDSDPFADWDEVPGWREASAERGVGLDLLDHLTHNVRRGQMRVWSEFYATLFGFEEQKFFDIKGQATGLFSQAMIAPDHEIRIPLNESQDDNSQIEEFIREYNGEGIQHLALTTPDIYSTVEKLRANGVRLQDTIDTYYDLVDERVPGHGEDLARLRKNRILIDGDVHDEGLLLQIVTETMFGPIFFEIIQRKGNEGFGNGNFQVLYESIELDQIRRGVVTVDA
modifications: N1HPPDm-F372V Amino Acid Sequence

Test system: Arabidopsis thaliana T1 plants
Assay: Topramezone tolerance of transgenic Arabidopsis thaliana T1 plants (pesticide damage grade by bleached leaf area, score, resistance evaluation)
Type: in vivo
Details: topramezone 25 g ai/ha (1x); HPPD F372V mutants, Table 7
Procedure, shortened: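 Herbicide tolerance was judged per plant on a bleaching scale (grade 0 no bleaching to grade 3 fully bleached) 7 DAT. Topramezone doses were 0, 25, 50 and 100 g ai/ha on 18-day-old T1 and wild-type plants.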

Question: B1 was tested. Which Resistance evaluation did it give?
Answer: Poorly resistant

Question: B2 was tested. Which Resistance evaluation did it give?
Answer: Highly resistant

Question: With B3 as the molecule, how does the Resistance evaluation read?
Answer: Poorly resistant

Question: Which Resistance evaluation does the source give for B4 here?
Answer: Poorly resistant

Question: For B5, which Resistance evaluation is on record?
Answer: Poorly resistant

Question: How did the Resistance evaluation turn out when B6 was run?
Answer: Poorly resistant

Question: With B7 as the molecule, how does the Resistance evaluation read?
Answer: Highly resistant

Question: Which Resistance evaluation does the source give for B8 here?
Answer: Poorly resistant

Question: Which Resistance evaluation does the source give for B9 here?
Answer: Poorly resistant

Question: Which Resistance evaluation does the source give for B10 here?
Answer: Highly resistant

Same assay, conditions: topramezone 100 g ai/ha (4x); HPPD F372V mutants, Table 7

Question: How did the Resistance evaluation turn out when B1 was run?
Answer: Non-resistant

Question: B2 was tested. Which Resistance evaluation did it give?
Answer: Highly resistant

Question: Which Resistance evaluation does the source give for B3 here?
Answer: Non-resistant

Question: For B4, which Resistance evaluation is on record?
Answer: Non-resistant

Question: For B5, which Resistance evaluation is on record?
Answer: Non-resistant

Question: With B6 as the molecule, how does the Resistance evaluation read?
Answer: Non-resistant

Question: How did the Resistance evaluation turn out when B7 was run?
Answer: Poorly resistant

Question: B8 was tested. Which Resistance evaluation did it give?
Answer: Non-resistant

Question: For B9, which Resistance evaluation is on record?
Answer: Non-resistant

Question: Which Resistance evaluation does the source give for B10 here?
Answer: Highly resistant
